Reference: PMC4993455 (PLoS ONE, 2016)

B1: GST-PDRG1 (natural protein)
chain: not shown
notes: 9 amino acid linker between GST and PDRG1; rat PDRG1, full ORF (402 bp) in pGEX-5X-1; also called pGEX-PDRG1; tagged-PDRG1; source: E. coli BL21(DE3) Codon Plus; soluble extract loaded on Glutathione-Sepharose (pull-down); purified on Glutathione-Sepharose 4B, eluted with 20 mM GSH (gel filtration, activity); not shown: GST, N-terminal, kept
B2: FLAG-MATα1 (enzyme)
chain: not shown
notes: rat MATα1, pFLAG-MAT containing the rat Mat1a ORF; also called pFLAG-MAT; source: CHO, HEK 293T or COS-7 cells, transiently transfected; in total lysate, nuclear or cytosolic fractions
B3: HA-PDRG1 (natural protein)
chain: not shown
notes: residues between the HA tag and PDRG1; rat PDRG1, full ORF (402 bp); also called pHA-PDRG1; HA-tagged PDRG1; source: CHO, HEK 293T or COS-7 cells, transiently transfected; in total lysate, nuclear or cytosolic fractions; not shown: HA, N-terminal, kept

Columns and labels:
[1] = biological target: T1, recombinant methionine adenosyltransferase α1 (MATα1) (rat, UniProt P13444 1-397); test: SEC; equimolar purified recombinant MATα1 or MATα2 and GST-PDRG1 incubated 1 hour at 4°C, then Biogel A column (1.5 x 90 cm) in 50 mM Tris/HCl pH 8, 10 mM MgSO4, 50 mM KCl at 4°C; both proteins detected in the pooled activity peaks by Coomassie staining and/or western blotting; details: both partners purified
T1 construct: rat MATα1, pSSRL-T7N containing the rat Mat1a ORF; also called pSSRL-T7N; MATα1 homo-oligomers; source: E. coli BL21(DE3) Codon Plus; soluble extract (pull-down)

[2] = biological target: the molecule itself; test: SEC; analytical gel filtration of nuclear fractions (100 μl) of HEK 293T cells overexpressing HA-PDRG1, FLAG-MATα1 or both on Superose 12 10/300 GL; fractions analysed by dot-blot

T1 sequence (P13444 whole entry): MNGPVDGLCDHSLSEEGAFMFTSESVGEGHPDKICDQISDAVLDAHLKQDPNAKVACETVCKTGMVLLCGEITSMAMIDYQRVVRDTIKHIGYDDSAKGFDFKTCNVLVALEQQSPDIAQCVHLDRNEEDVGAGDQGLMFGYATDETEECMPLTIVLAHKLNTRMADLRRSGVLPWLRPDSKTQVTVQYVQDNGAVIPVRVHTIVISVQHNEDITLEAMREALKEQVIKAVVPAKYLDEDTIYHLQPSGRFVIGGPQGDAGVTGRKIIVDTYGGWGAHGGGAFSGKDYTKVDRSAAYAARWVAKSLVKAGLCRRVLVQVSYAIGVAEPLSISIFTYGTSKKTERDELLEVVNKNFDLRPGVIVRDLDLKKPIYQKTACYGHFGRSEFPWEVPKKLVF

Row | Binder | binding result [1] | stoichiometry N [2]
1 | B1 | binds | 
2 | B2 |  | 4
3 | B3 |  | 6
